Results published in patent publication US20230002458A1 (ALPHABETA, published 2023).

T1: rh wt Bri2 BRICHOS-mCherry oligomers (human, UniProt A5A6H8 113-231 (Pan troglodytes entry))
T1 sequence: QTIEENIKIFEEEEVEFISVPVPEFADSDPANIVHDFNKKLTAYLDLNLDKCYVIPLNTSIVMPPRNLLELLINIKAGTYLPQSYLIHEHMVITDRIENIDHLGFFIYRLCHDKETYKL


Assays:
[1] = biological target: T1, rh wt Bri2 BRICHOS-mCherry oligomers; assay: cell-based or functional assay
[2] = biological target: the molecule itself; assay: size exclusion chromatography, self-association

| release of wt monomers from oligomers after co-incubation [1] | Binder | binding result [2] |
| --- | --- | --- |
| ~2 molar ratio mutant:wt | rh Bri2 BRICHOS R221E monomer (other) QTIEENIKIFEEEEVEFISVPVPEFADSDPANIVHDFNKKLTAYLDLNLDKCYVIPLNTSIVMPPRNLLELLINIKAGTYLPQSYLIHEHMVITDRIENIDHLGFFIYELCHDKETYKL | – |
| – | rh wt Bri2 BRICHOS (other, also called Bri2 BRICHOS [Bri2(113-231)]; wt protein) QTIEENIKIFEEEEVEFISVPVPEFADSDPANIVHDFNKKLTAYLDLNLDKCYVIPLNTSIVMPPRNLLELLINIKAGTYLPQSYLIHEHMVITDRIENIDHLGFFIYRLCHDKETYKL | binds |
